Measured values: article PMC9940316
Values belong to the substance of their own block, whether it stands above or below them.

Legend:
[1] = target: rabbit polyclonal anti-BSA antibody (IgG) (rabbit) (UniProt P01870); assay: SPR; pH 7.5
[2] = target: rabbit polyclonal anti-BSA antibody (IgG) (rabbit) (UniProt P01870); assay: SPR; pH 4.6
[3] = target: rabbit polyclonal anti-BSA antibody (IgG) (rabbit) (UniProt P01870); assay: SPR; pH 4.0
[4] = target: human plasma IgG4 (human); assay: SPR; BIAcore 3000; human IgG subclass immobilised on CM5 chip by amine coupling (200-1000 RU); FcγRI mutants as analytes; steady-state fitting
[5] = target: human plasma IgG3 (human); assay: as above
[6] = target: human IgG2 (human); assay: as above
[7] = target: VRC01, human IgG1 isotype anti-gp120 antibody, wildtype (human); assay: BLI; Octet R8; VRC01 or D265R mutant captured on Protein A biosensors (~5 nm); serial dilutions of FcγRI (Zymogenetics); 10mM Hepes pH7.5, 0.15M NaCl; 1:1 binding model
Chain of VRC01, human IgG1 isotype anti-gp120 antibody, wildtype (human) (light, as listed by the source, chain 2 of 2, other chains not shown): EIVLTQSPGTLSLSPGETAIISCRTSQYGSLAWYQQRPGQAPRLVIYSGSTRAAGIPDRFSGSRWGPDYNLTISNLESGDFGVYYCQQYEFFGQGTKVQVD

[8] = target: VRC01 D265R mutant antibody (human); assay: as above
Chain of VRC01 D265R mutant antibody (human) (light, as listed by the source, chain 2 of 2, other chains not shown): as above

[9] = target: human plasma IgG4 (human); assay: SPR; BIAcore 3000; human IgG subclass immobilised on CM5 chip by amine coupling (200-1000 RU); wild type FcγRI as analyte; kinetic curve fitting
[10] = target: human plasma IgG3 (human); assay: as above
[11] = target: human IgG2 (human); assay: as above

Chain of rabbit polyclonal anti-BSA antibody (IgG) (rabbit) (P01870 whole entry, looked up): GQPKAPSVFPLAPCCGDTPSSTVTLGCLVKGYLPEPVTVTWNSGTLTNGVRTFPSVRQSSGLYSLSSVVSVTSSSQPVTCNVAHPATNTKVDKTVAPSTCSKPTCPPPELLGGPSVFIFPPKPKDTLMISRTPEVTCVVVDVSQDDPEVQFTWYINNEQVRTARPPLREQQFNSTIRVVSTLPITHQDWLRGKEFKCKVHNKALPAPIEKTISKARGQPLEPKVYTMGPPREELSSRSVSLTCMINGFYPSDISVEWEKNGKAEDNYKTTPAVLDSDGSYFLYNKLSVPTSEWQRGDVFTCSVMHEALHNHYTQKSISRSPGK
Chain of recombinant human FcγRI, wildtype (P12314 21-282): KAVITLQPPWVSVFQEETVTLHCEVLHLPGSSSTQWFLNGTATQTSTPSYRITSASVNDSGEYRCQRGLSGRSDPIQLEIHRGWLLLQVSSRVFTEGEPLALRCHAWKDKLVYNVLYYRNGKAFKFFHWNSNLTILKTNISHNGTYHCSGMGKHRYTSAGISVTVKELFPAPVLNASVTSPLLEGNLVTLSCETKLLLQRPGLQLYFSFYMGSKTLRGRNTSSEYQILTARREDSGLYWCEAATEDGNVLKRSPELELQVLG

Kd [1]: 7.8 nM | Kd [2]: 10.1 nM | Kd [3]: 1.8 nM
Substance: BSA

Kd [4]: 109 nM | Kd [5]: 24.2 nM | Kd [6]: 32.8 nM
Substance: FcγRI H174R variant (bovine FG-loop variant of human FcγRI) (from UniProt P12314 21-282) (receptor)

Kd [7]: 12 nM | Kd [8]: 1160 nM | Kd [9]: 65.7 nM | Kd [10]: 28.6 nM | Kd [11]: 41 nM
Substance: recombinant human FcγRI, wildtype (from UniProt P12314 21-282) (receptor)
